Test results: the supplement of paper PMC12764529
± gives the half width of the 95% confidence interval.

Test: folding stability dG unfold from trypsin proteolysis; higher = more stable
How it was run: (§1)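 Digests were run with trypsin and chymotrypsin at 11 concentrations in threefold dilutions, plus a no-protease condition, on designed mini-proteins in a PA-tagged cDNA display construct. The mini-proteins were under 80 residues, had no cysteine, and were kept only when AlphaFold2 dimer inter-PAE was above 15. After sequencing, Bayesian fitting of the counts gave K50, from which unfolding free energy was derived against a sequence-predicted unfolded-state K50 and a shared folded-state K50, per protease or combined.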

In order of falling “folding stability dG unfold” value:
1. GMTVTHTAEAGGRPLTITVTRSPDGWEVTVTDPDGTPIFSKTIPSDKNATLTLTDSAGNPLVTVNITLPPES [r1_34_JUSTAS]  4.15 ± 0.11 kcal/mol
2. SAGGSAGGSAGGMVKIKLKNGKWYEAKVTEIDEDGNVVVELPNGKKFTVPAKDLEIEVLPSAGGSAGGSAGG [r7_823_TrROS_Hall]  3.77 ± 0.29 kcal/mol
3. SAGGSAGGSAGGSFELVGLVSEFEDENGIPVRVFKAKNPLLGYEFLVVVLPNGEVFFLPSAGGSAGGSAGGS [r10_1123_TrMRF]  2.8 ± 0.053 kcal/mol
4. SAGMKKPPPPTVTIKIRVNGKTITITVYPDGTVTVTFENGEKKTIKMTPEEVEKLLKELEKKGYEIELVSAG [r5_753_TrROS_Hall]  2.51 ± 0.26 kcal/mol
5. SAGGSAGGSEKKPPEVTVVIKLPKGTSLEELLAALPPGAKAEIVEVVKVDEEKNEVYVKIRLTSAGGSAGGS [r12_469_TrROS_Hall]  2.26 ± 0.11 kcal/mol
6. SAGGSAGGSGVSSVLESLPPSYTVTVEKLPESGKLVVTVTSPSGAAPSLTLDEELADLLKELLSAGGSAGGS [r12_174_JUSTAS]  2.2 ± 0.13 kcal/mol
7. SAGGSAGGSAGGSAPPNLIIFIHVEIKIKEPKFDPGNGKPEYEIEITDIPIQIMPPDDLSAGGSAGGSAGGS [r4_417_TrROS]  2.15 ± 0.16 kcal/mol
8. SAGGNGRKKVKIDISIMIPIPPNDMPPEQRMKLAKELAERIARSLARKEGADPDKIDEVKVRFHIFPWSAGG [r13_5_TrROS]  2.03 ± 0.027 kcal/mol
9. SAGGSAGGSALEIPFPIKDVKWERNPDGSRTRTFYLKNGWRASLIFNPKNGQMQIDIEPLDSAGGSAGGSAG [r3_438_TrROS]  1.8 ± 0.073 kcal/mol
10. SMDPGDPILITIKIPPVPVYRYKRDPDGNPKGYEPVPMPSQELVIIIPANDLEKLLDLLQPFGLDVEIIPSA [r9_167_TrROS]  1.58 ± 0.071 kcal/mol
11. SAGPPKKVEIPVRYPFDGWEIMIQIDPKDPKIEIHVHNPEHRERAREYARTIARIFQENGIPVEIEPWSAGG [r19_354_TrROS]  1.48 ± 0.057 kcal/mol
12. SAGDTISIMIPPGMSGERAVNQIKYIAREQKENGKKRKITIWMPDPMRARFIKKALDEKGIPIEIEFWSAGG [r19_268_TrROS]  1.24 ± 0.049 kcal/mol
13. SAGGSSPWLERALEEARELMKNDPPGKEVEAKVKVPYPTPDGQQQPMKFRIRMTYKNNKIKEIEITSAGGSA [r2_173_TrROS]  0.91 ± 0.11 kcal/mol
14. SAGGSAGGGKVKVELEPLEDDSYRLRITVELPDGSKIEKPVILPSNVPPELSAEKVAEEILKKESAGGSAGG [r6_895_TrMRF]  0.378 ± 0.089 kcal/mol
15. SAGGSAGGSAGMRLVTITLTTEKPIFDENGNPIGTTTRTVVLEREVPEPEVPEVPLYQALSAGGSAGGSAGG [r11_131_JUSTAS]  0.304 ± 0.18 kcal/mol
16. SAGGSAGGSAGEIENPSLLSQIVPRKVKVTTEIRKLPNGSYETVTTVTYGSTTTTTTSSGATSAGGSAGGSA [r18_335_JUSTAS]  0.163 ± 0.048 kcal/mol
17. SAGGSAGGSAGGSGSITITYSSDGDKYSATFTVPDGTVVTVPNMSVDEAKKVAEKFLKSSAGGSAGGSAGGS [r4_383_JUSTAS]  -0.389 ± 0.14 kcal/mol

Test: folding stability dG unfold from chymotrypsin proteolysis; higher = more stable
How it was run: as §1

In order of falling “folding stability dG unfold” value:
1. GMTVTHTAEAGGRPLTITVTRSPDGWEVTVTDPDGTPIFSKTIPSDKNATLTLTDSAGNPLVTVNITLPPES [r1_34_JUSTAS]  3.8 ± 0.046 kcal/mol
2. SAGGSAGGSAGGMVKIKLKNGKWYEAKVTEIDEDGNVVVELPNGKKFTVPAKDLEIEVLPSAGGSAGGSAGG [r7_823_TrROS_Hall]  3.7 ± 0.097 kcal/mol
3. SAGGSAGGSAGGSFELVGLVSEFEDENGIPVRVFKAKNPLLGYEFLVVVLPNGEVFFLPSAGGSAGGSAGGS [r10_1123_TrMRF]  3.124 ± 0.014 kcal/mol
4. SAGGSAGGSEKKPPEVTVVIKLPKGTSLEELLAALPPGAKAEIVEVVKVDEEKNEVYVKIRLTSAGGSAGGS [r12_469_TrROS_Hall]  2.71 ± 0.04 kcal/mol
5. SAGGNGRKKVKIDISIMIPIPPNDMPPEQRMKLAKELAERIARSLARKEGADPDKIDEVKVRFHIFPWSAGG [r13_5_TrROS]  2.65 ± 0.067 kcal/mol
6. SMDPGDPILITIKIPPVPVYRYKRDPDGNPKGYEPVPMPSQELVIIIPANDLEKLLDLLQPFGLDVEIIPSA [r9_167_TrROS]  2.44 ± 0.083 kcal/mol
7. SAGGSAGGSAGGSAPPNLIIFIHVEIKIKEPKFDPGNGKPEYEIEITDIPIQIMPPDDLSAGGSAGGSAGGS [r4_417_TrROS]  2.39 ± 0.088 kcal/mol
8. SAGPPKKVEIPVRYPFDGWEIMIQIDPKDPKIEIHVHNPEHRERAREYARTIARIFQENGIPVEIEPWSAGG [r19_354_TrROS]  1.91 ± 0.095 kcal/mol
9. SAGGSAGGSALEIPFPIKDVKWERNPDGSRTRTFYLKNGWRASLIFNPKNGQMQIDIEPLDSAGGSAGGSAG [r3_438_TrROS]  1.57 ± 0.12 kcal/mol
10. SAGGSAGGSAGGSGSITITYSSDGDKYSATFTVPDGTVVTVPNMSVDEAKKVAEKFLKSSAGGSAGGSAGGS [r4_383_JUSTAS]  1.08 ± 0.12 kcal/mol
11. SAGDTISIMIPPGMSGERAVNQIKYIAREQKENGKKRKITIWMPDPMRARFIKKALDEKGIPIEIEFWSAGG [r19_268_TrROS]  0.766 ± 0.11 kcal/mol
12. SAGMKKPPPPTVTIKIRVNGKTITITVYPDGTVTVTFENGEKKTIKMTPEEVEKLLKELEKKGYEIELVSAG [r5_753_TrROS_Hall]  0.664 ± 0.33 kcal/mol
13. SAGGSAGGSGVSSVLESLPPSYTVTVEKLPESGKLVVTVTSPSGAAPSLTLDEELADLLKELLSAGGSAGGS [r12_174_JUSTAS]  0.626 ± 0.03 kcal/mol
14. SAGGSSPWLERALEEARELMKNDPPGKEVEAKVKVPYPTPDGQQQPMKFRIRMTYKNNKIKEIEITSAGGSA [r2_173_TrROS]  0.518 ± 0.25 kcal/mol
15. SAGGSAGGSAGMRLVTITLTTEKPIFDENGNPIGTTTRTVVLEREVPEPEVPEVPLYQALSAGGSAGGSAGG [r11_131_JUSTAS]  0.189 ± 0.18 kcal/mol
16. SAGGSAGGGKVKVELEPLEDDSYRLRITVELPDGSKIEKPVILPSNVPPELSAEKVAEEILKKESAGGSAGG [r6_895_TrMRF]  -0.117 ± 0.34 kcal/mol
17. SAGGSAGGSAGEIENPSLLSQIVPRKVKVTTEIRKLPNGSYETVTTVTYGSTTTTTTSSGATSAGGSAGGSA [r18_335_JUSTAS]  -0.256 ± 0.15 kcal/mol

Test: folding stability dG unfold (combined trypsin and chymotrypsin); higher = more stable
How it was run: as §1

In order of rising “folding stability dG unfold” value:
1. SAGGSAGGSAGEIENPSLLSQIVPRKVKVTTEIRKLPNGSYETVTTVTYGSTTTTTTSSGATSAGGSAGGSA [r18_335_JUSTAS]  0.0269 ± 0.096 kcal/mol
2. SAGGSAGGGKVKVELEPLEDDSYRLRITVELPDGSKIEKPVILPSNVPPELSAEKVAEEILKKESAGGSAGG [r6_895_TrMRF]  0.228 ± 0.24 kcal/mol
3. SAGGSAGGSAGMRLVTITLTTEKPIFDENGNPIGTTTRTVVLEREVPEPEVPEVPLYQALSAGGSAGGSAGG [r11_131_JUSTAS]  0.261 ± 0.17 kcal/mol
4. SAGGSAGGSAGGSGSITITYSSDGDKYSATFTVPDGTVVTVPNMSVDEAKKVAEKFLKSSAGGSAGGSAGGS [r4_383_JUSTAS]  0.659 ± 0.095 kcal/mol
5. SAGGSSPWLERALEEARELMKNDPPGKEVEAKVKVPYPTPDGQQQPMKFRIRMTYKNNKIKEIEITSAGGSA [r2_173_TrROS]  0.823 ± 0.17 kcal/mol
6. SAGDTISIMIPPGMSGERAVNQIKYIAREQKENGKKRKITIWMPDPMRARFIKKALDEKGIPIEIEFWSAGG [r19_268_TrROS]  1 ± 0.1 kcal/mol
7. SAGGSAGGSGVSSVLESLPPSYTVTVEKLPESGKLVVTVTSPSGAAPSLTLDEELADLLKELLSAGGSAGGS [r12_174_JUSTAS]  1.47 ± 0.093 kcal/mol
8. SAGMKKPPPPTVTIKIRVNGKTITITVYPDGTVTVTFENGEKKTIKMTPEEVEKLLKELEKKGYEIELVSAG [r5_753_TrROS_Hall]  1.49 ± 0.48 kcal/mol
9. SAGPPKKVEIPVRYPFDGWEIMIQIDPKDPKIEIHVHNPEHRERAREYARTIARIFQENGIPVEIEPWSAGG [r19_354_TrROS]  1.73 ± 0.21 kcal/mol
10. SAGGSAGGSALEIPFPIKDVKWERNPDGSRTRTFYLKNGWRASLIFNPKNGQMQIDIEPLDSAGGSAGGSAG [r3_438_TrROS]  1.81 ± 0.17 kcal/mol
11. SMDPGDPILITIKIPPVPVYRYKRDPDGNPKGYEPVPMPSQELVIIIPANDLEKLLDLLQPFGLDVEIIPSA [r9_167_TrROS]  2.08 ± 0.13 kcal/mol
12. SAGGSAGGSAGGSAPPNLIIFIHVEIKIKEPKFDPGNGKPEYEIEITDIPIQIMPPDDLSAGGSAGGSAGGS [r4_417_TrROS]  2.26 ± 0.11 kcal/mol
13. SAGGNGRKKVKIDISIMIPIPPNDMPPEQRMKLAKELAERIARSLARKEGADPDKIDEVKVRFHIFPWSAGG [r13_5_TrROS]  2.44 ± 0.072 kcal/mol
14. SAGGSAGGSEKKPPEVTVVIKLPKGTSLEELLAALPPGAKAEIVEVVKVDEEKNEVYVKIRLTSAGGSAGGS [r12_469_TrROS_Hall]  2.61 ± 0.095 kcal/mol
15. SAGGSAGGSAGGSFELVGLVSEFEDENGIPVRVFKAKNPLLGYEFLVVVLPNGEVFFLPSAGGSAGGSAGGS [r10_1123_TrMRF]  2.99 ± 0.089 kcal/mol
16. SAGGSAGGSAGGMVKIKLKNGKWYEAKVTEIDEDGNVVVELPNGKKFTVPAKDLEIEVLPSAGGSAGGSAGG [r7_823_TrROS_Hall]  3.69 ± 0.11 kcal/mol
17. GMTVTHTAEAGGRPLTITVTRSPDGWEVTVTDPDGTPIFSKTIPSDKNATLTLTDSAGNPLVTVNITLPPES [r1_34_JUSTAS]  3.91 ± 0.051 kcal/mol
